Data as given in patent US20190248900A1 (Y BIOLOGICS, published 2019).

How the values were obtained:
Test in all cases: ELISA
DKK4 = target: T1, DKK4 (Homo sapiens (Human), UniProt Q9UBT3 19-224)
T1 sequence: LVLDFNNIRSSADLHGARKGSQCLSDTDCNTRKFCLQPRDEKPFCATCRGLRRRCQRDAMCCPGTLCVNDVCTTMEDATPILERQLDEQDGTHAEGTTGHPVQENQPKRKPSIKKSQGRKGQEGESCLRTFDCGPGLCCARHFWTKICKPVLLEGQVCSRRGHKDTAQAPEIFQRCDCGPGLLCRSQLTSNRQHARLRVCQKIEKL

TMED1 = target: T2, TMED1 (Homo sapiens (Human), UniProt Q13445 24-194)
T2 sequence: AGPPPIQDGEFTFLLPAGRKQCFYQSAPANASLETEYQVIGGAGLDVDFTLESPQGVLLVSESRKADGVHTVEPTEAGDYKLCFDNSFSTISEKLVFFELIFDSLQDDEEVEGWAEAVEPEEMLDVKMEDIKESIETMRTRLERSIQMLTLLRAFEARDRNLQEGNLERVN

HAPLN4 = HAPLN4 (Homo sapiens (Human), UniProt Q86UW8 30-402)
HAPLN4, sequence (Q86UW8 30-402 limits assumed): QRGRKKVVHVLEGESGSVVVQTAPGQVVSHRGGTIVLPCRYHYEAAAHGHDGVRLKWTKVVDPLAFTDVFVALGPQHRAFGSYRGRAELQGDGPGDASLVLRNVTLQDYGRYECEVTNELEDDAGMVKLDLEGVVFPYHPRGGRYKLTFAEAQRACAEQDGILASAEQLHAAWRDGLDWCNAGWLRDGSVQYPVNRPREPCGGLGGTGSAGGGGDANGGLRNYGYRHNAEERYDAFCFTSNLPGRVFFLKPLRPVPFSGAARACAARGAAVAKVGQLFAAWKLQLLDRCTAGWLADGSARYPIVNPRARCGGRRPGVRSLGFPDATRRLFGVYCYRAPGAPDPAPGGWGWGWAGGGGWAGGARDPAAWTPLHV

WFDC2 = target: T3, WFDC2 (Homo sapiens (Human), UniProt Q14508 31-124)
T3 sequence: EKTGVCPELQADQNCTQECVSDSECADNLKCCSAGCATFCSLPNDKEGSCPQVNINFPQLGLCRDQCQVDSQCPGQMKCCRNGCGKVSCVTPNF

EV12A = target: T4, EV12A (Homo sapiens (Human), UniProt P22794 31-133)
T4 sequence: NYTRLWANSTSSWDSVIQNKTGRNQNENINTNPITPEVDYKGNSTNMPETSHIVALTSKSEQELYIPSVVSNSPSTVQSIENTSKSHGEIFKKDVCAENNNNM

MICA = MICA (Homo sapiens (Human), UniProt Q29983 24-307)
MICA, sequence (Q29983 24-307 limits assumed): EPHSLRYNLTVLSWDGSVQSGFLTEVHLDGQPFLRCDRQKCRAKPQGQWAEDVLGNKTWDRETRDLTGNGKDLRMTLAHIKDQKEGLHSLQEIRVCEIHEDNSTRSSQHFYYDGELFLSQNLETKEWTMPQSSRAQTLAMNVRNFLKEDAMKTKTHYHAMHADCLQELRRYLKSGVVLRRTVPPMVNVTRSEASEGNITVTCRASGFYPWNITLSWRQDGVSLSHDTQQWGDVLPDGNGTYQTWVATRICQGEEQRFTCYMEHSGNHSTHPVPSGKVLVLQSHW

EPYC = target: T5, EPYC (Homo sapiens (Human), UniProt Q99645 20-322)
T5 sequence: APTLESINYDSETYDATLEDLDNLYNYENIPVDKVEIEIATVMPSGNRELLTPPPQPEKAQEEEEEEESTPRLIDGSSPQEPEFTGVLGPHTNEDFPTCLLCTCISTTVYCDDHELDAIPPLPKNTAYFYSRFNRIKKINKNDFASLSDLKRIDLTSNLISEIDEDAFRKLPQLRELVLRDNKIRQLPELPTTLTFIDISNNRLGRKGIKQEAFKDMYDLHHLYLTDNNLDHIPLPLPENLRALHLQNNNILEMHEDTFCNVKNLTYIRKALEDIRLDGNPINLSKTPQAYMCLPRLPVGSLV

FZD10 = target: T6, FZD10 (Homo sapiens (Human), UniProt Q9ULW2 21-225)
T6 sequence: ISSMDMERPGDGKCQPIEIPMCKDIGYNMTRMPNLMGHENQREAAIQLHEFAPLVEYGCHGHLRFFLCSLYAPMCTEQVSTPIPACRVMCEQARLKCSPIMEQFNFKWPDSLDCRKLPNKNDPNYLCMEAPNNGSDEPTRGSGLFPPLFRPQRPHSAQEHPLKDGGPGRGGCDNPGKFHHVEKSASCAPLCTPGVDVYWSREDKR

SUSD1 = SUSD1 (Homo sapiens (Human), UniProt Q6UWL2 30-721)
SUSD1, sequence (Q6UWL2 30-721 limits assumed): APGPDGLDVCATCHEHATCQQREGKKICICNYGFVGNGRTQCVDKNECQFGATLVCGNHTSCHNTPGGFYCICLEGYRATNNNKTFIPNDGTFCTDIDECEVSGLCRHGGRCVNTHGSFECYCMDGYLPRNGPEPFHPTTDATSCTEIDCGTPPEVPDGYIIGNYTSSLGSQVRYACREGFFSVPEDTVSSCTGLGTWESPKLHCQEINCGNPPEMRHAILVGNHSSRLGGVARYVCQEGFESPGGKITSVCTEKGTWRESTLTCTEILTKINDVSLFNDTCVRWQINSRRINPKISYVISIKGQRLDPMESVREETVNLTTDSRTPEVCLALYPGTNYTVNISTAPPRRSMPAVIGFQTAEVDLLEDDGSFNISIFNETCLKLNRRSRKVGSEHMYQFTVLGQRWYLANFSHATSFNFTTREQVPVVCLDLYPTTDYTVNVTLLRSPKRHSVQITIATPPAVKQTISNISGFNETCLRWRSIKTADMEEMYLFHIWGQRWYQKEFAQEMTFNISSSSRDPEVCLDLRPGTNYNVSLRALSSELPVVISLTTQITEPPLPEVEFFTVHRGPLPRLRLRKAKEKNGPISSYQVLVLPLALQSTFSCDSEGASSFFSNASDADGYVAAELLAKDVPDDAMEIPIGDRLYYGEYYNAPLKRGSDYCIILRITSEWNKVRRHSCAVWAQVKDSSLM

FSTL3 = target: T7, FSTL3 (Homo sapiens (Human), UniProt O95633 27-263)
T7 sequence: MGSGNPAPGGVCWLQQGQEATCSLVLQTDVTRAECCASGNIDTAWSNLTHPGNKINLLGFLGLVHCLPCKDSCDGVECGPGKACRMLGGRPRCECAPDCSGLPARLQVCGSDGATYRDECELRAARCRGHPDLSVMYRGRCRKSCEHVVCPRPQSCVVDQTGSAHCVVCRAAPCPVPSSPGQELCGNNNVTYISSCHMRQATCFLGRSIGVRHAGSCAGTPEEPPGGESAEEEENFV

SPOCK1 = target: T8, SPOCK1 (Homo sapiens (Human), UniProt Q08629 22-439)
T8 sequence: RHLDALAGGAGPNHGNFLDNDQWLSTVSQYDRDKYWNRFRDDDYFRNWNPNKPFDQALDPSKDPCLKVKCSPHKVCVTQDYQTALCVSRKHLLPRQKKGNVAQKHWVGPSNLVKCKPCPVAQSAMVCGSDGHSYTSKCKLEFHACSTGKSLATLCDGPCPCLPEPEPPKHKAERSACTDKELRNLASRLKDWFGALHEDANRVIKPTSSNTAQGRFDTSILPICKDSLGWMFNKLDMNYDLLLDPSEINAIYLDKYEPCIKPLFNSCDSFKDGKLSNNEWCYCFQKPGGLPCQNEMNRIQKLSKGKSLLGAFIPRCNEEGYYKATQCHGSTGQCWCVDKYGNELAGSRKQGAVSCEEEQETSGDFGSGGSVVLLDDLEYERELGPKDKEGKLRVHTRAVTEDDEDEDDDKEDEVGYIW

TMEFF2 = target: T9, TMEFF2 (Homo sapiens (Human), UniProt Q9UIK5 41-320)
T9 sequence: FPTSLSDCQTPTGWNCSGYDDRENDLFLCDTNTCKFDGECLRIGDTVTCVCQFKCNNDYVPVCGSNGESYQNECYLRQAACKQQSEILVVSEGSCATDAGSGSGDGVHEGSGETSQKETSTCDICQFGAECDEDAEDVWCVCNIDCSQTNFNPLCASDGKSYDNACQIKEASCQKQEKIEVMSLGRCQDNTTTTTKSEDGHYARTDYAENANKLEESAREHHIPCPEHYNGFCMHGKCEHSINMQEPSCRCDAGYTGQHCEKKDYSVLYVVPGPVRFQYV

Measured: binding result

B1: PD1-41C9 (antibody, V domains shown)
VH: QMQLVESGGGVVQPGRSLRLSCAASGFTFSSYAMHWVRQAPGKGLEWVAVISYDGSNKYYADSVKGRFTISRDNSKNTLYLQMNRLRSEDTAVYYCTTTTFDSWGQGTLITVSS
VL: DIVMTQTPLSLPVTPGEAASISCRSSQSLLDSEDGNTYLDWYLQKPGQSPQLLIYTLSHRASGVPDRFSGSGSGTDFTLKISRVAAEDVGLYYCLQRMGFPYTFGQGTKLDIK
notes: scFv-phage in the screening ELISA; whole IgG in the other assays
no binding (tested: 1 ug/ml): DKK4 | TMED1 | HAPLN4 | WFDC2 | EV12A | MICA | EPYC | FZD10 | SUSD1 | FSTL3 | SPOCK1 | TMEFF2

B2: PD1-49A2 (antibody, V domains shown)
VH: QVQLVESGGGVVQPGRSLRLSCAASGFTFSSYAMHWVRQAPGKGLEWVAVISYDGSNKYYADSVKGRFTISRDNPKNTLYLQMNSLRAEDTAVYYCTTTTFDSWGRGTLVTVSS
VL: DIVMTQSPLSLPVTPGEPASISCRSSQSLFDSDDGNTYLDWYLQKPGQSPQLLIYTLSHRASGVPDRFSGSGSGTDFTLKISRVEAEDVGIYYCLQRMGFPYTFGQGTKVEIK
notes: scFv-phage in the screening ELISA; whole IgG in the other assays; also called Parent 49A2
no binding (tested: 1 ug/ml): DKK4 | TMED1 | HAPLN4 | WFDC2 | EV12A | MICA | EPYC | FZD10 | SUSD1 | FSTL3 | SPOCK1 | TMEFF2

B3: PD1-45D6 (antibody, V domains shown)
VH: QVQLVESGGGVVQPGRSLRLSCAASGFTFSSYAMHWVRQVPGKGLEWVAVISYDGNDKYYADSVKGRFTISRDNSKNTLYLQMNSLRAEDTAVYYCVPTTFEYWGQGSQVTVSS
VL: DIVMTQTPLSLPVTPGEAASISCRSSQSLLDSDDGKTYLDWYLQKPGQSPQLLIYTLSYRASGVPDRFSGSGSGTEFNLRISRVEAEDVGIYYCMQRVEFPFTFGQGTKLDIK
notes: as for B1
no binding (tested: 1 ug/ml): DKK4 | TMED1 | HAPLN4 | WFDC2 | EV12A | MICA | EPYC | FZD10 | SUSD1 | FSTL3 | SPOCK1 | TMEFF2
